# Measured values reported in article PMC3108429.
# Assays:
# [1] = molecular target: taxol-stabilized microtubules; test: bead binding to microtubules counted by DIC microscopy
# [2] = molecular target: dynamic microtubules grown from GMPCPP-stabilized microtubule seeds (bovine); test: constant-force laser trap bead motility assay
microtubule-bound beads per field (beads per field) [1],mean attachment lifetime at 1 pN tension [2],mean attachment lifetime at 5 pN tension [2],Substance
18,–,–,Dsn1-HIS-FLAG kinetochore particles from the dad1-1 mutant strain (from UniProt P40568 1-576; Q12248 1-94) (complex)
2,–,–,Dsn1-HIS-FLAG kinetochore particles from the ndc80-1 mutant strain (from UniProt P40568 1-576; P40460 1-691) (complex)
4,–,–,Dsn1-HIS-FLAG kinetochore particles from the spc105-15 mutant strain (from UniProt P40568 1-576; P53148 1-917) (complex)
22,21 min,50 min,Dsn1-HIS-FLAG kinetochore particles from wild-type cells (from UniProt P40568 1-576) (complex)
